Substitutions are numbered along the chain they refer to. Values belong to the binder of their own block, whether it stands above or below them.
Columns and labels:
[1] = biological target: T1, mouse SIRPβ1 on CHO cells (mouse); assay: flow cytometry;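 for FOB: antibodies tested at 1 µg/ml for 30 min on ice against receptor-expressing cells, detected with a PE-labelled secondary antibody, read as mean fluorescence intensity relative to background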
T1 construct: Whole entry
T1 chain: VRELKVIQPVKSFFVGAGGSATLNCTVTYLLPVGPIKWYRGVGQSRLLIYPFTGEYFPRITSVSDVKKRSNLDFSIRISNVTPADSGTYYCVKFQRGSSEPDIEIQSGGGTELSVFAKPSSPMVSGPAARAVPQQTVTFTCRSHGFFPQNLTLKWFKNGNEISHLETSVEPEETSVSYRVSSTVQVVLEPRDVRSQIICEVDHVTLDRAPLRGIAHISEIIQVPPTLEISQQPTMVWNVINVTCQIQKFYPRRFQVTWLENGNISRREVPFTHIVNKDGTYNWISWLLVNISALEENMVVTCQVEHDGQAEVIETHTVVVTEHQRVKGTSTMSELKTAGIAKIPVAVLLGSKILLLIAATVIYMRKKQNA

human SIRPα on cells [2] = biological target: T2, human SIRPα on cells (human, UniProt P78324 31-504); assay: flow cytometry;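 for FOB: antibodies tested at 1 µg/ml for 30 min on ice against receptor-expressing cells, detected with a PE-labelled secondary antibody, read as mean fluorescence intensity relative to background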
T2 construct: Whole entry

mouse SIRPα on cells [3] = biological target: T3, mouse SIRPα on cells (mouse, UniProt P97797 32-513); assay: flow cytometry;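 for FOB: antibodies tested at 1 µg/ml for 30 min on ice against receptor-expressing cells, detected with a PE-labelled secondary antibody, read as mean fluorescence intensity relative to background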
T3 construct: whole, on cells
T3 sequence (looked up): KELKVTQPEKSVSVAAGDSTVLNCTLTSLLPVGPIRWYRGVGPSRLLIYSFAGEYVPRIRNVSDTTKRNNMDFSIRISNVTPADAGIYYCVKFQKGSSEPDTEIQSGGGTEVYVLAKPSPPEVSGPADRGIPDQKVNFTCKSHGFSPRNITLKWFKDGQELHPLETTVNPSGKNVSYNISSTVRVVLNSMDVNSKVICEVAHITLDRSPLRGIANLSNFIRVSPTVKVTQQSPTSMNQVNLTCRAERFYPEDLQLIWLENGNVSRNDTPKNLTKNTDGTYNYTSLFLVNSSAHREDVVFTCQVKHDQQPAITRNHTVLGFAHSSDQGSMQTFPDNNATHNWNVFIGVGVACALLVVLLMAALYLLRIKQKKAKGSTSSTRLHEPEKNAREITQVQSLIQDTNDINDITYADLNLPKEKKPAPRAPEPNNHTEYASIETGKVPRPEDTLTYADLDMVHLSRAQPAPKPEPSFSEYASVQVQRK

[4] = biological target: T1, mouse SIRPβ1 on CHO cells; assay: flow cytometry;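 for FOB: antibodies tested at 1 µg/ml for 30 min on ice against receptor-expressing cells, detected with a PE-labelled secondary antibody, read as mean fluorescence intensity relative to background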
Protocol: (§1) Initial characterization of anti-SIRPβ1 antibodies involved determining their ability to bind cell lines expressing human or mouse SIRPβ1. Cells were harvested, plated at 10⁶/ml in a 96-well plate, washed, and incubated in 100 μl FACS buffer containing 1 μg/ml anti-SIRPβ1 antibody for 0.5 hour on ice. Cells were then washed twice and incubated in 100 μl FACS buffer containing 0.5 μg/ml PE-conjugated secondary antibody for 30 minutes on ice. Cells were washed twice in cold FACS buffer and acquired on a BD FACS Canto. Data analysis and calculation of mean fluorescence intensity (MFI) values or 00 positive cells was performed with FlowJo (TreeStar) software version 10.0.7.
(§2) As a negative control, the anti-SIRPβ1 antibodies were also screened for surface binding to CHO cells overexpressing recombinant mouse SIRPβ31. […] Given the high sequence similarity between receptors of the SIRPβ family, anti-SIRPβ1 antibodies were also screened for cross-reactivity to human and mouse SIRPα.

human SIRPα on cells [5] = biological target: T2, human SIRPα on cells; assay: flow cytometry; remark: listed apart in the source
Protocol: as §1, §2

[6] = biological target: T4, human SIRPβ1 isoform 1 on cells (human, UniProt O00241 30-398); assay: flow cytometry
T4 construct: On CHO cells (low level), on BWZ/BW5147.G.1.4 cells (reporter cells co-express human DAP12) or on primary human myeloid cells; also called huSIRPβ1; BWZ-huSIRPβ1
Protocol: as §1, §2

mouse SIRPα on cells [7] = biological target: T3, mouse SIRPα on cells; assay: flow cytometry; remark: listed apart in the source
Protocol: as §1, §2

[8] = biological target: T5, human SIRPα domain 1 (D1) Fc fusion (human, UniProt P78324 32-149); assay: Octet
T5 construct: also called human SIRPα D1-Fc; Human SIRPα Fc; not shown: C-terminal human IgG1 Fc

mouse SIRPα D1-Fc = biological target: T6, mouse SIRPα D1-Fc (mouse, UniProt P97797 32-150, limits assumed); assay: Octet
T6 construct: domain: D1
T6 sequence (looked up): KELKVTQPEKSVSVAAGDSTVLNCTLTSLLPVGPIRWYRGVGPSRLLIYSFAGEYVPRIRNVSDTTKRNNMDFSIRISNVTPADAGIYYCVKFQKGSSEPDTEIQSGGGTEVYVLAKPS
Protocol: Briefly, Octet affinity measurements were performed by loading IgGs on-line onto AHQ sensors. Sensors were equilibrated off-line in assay buffer for 30 min and then monitored on-line for 60 seconds for baseline establishment. For avid binding measurement, sensors with loaded IgGs were exposed to 100 nM antigen (human SIRPα domain 1 (D1) Fc fusion or SIRPβ1 domain 1 (D1) Fc fusion) for 3 min, and then transferred to assay buffer for 3 min for off-rate measurement. Additional avid binding was determined by loading biotinylated SIRPβ1 monomer on SA sensors and exposing to 100 nM IgG in solution. Monovalent binding measurements were obtained by loading human SIRPα- or SIRPβ1-Fc fusion antigens onto AHQ sensor, followed by exposure to 100 nM anti-SIRPβ1 antibody Fab. Additional monovalent measurements were made by loading biotinylated human SIRPα or SIRPβ1 monomer to SA sensor followed by exposure to 100 nM Fab in solution. Kinetics data were fit using a 1:1 binding model in the data analysis software provided by ForteBio (ForteBio Data Analysis Software 7.0).

[9] = biological target: T7, human SIRPβ1 domain 1 (D1) Fc fusion (human, UniProt O00241 30-148); assay: Octet, IgG avid
T7 construct: Made in HEK293/T cells with a heterologous signal peptide; also called Human SIRPβ1 D1-Fc; Human SIRPβ1-Fc; not shown: C-terminal human IgG1 Fc
T7 sequence (O00241 30-148 limits assumed): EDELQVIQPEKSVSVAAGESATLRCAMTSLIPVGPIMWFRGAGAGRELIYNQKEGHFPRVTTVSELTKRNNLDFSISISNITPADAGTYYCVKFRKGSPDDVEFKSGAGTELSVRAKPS

T4 sequence (O00241 30-398): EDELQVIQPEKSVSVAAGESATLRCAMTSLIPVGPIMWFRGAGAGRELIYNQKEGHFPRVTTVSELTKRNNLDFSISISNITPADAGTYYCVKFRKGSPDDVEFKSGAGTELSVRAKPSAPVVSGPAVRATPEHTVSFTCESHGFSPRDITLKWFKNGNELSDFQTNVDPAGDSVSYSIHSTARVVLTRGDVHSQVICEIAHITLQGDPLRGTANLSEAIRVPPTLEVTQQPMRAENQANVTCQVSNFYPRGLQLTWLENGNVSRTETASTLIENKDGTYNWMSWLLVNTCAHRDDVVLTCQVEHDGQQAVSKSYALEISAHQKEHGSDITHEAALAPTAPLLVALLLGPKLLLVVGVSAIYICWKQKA

- binding result [1]: no binding (tested: 1 ug/ml)
- binding result (human SIRPα on cells [2]): no binding (tested: 1 ug/ml)
- binding result (mouse SIRPα on cells [3]): no binding (tested: 1 ug/ml)
- FOB [4]: 1.3 fold over background
- FOB (human SIRPα on cells [5]): 2 fold over background
- FOB [6]: 1.6 fold over background
- FOB (mouse SIRPα on cells [7]): 1.5 fold over background
- binding result [8]: no binding (tested: 100 nM)
- binding result (mouse SIRPα D1-Fc): no binding (tested: 100 nM)
B1: SB-5 (antibody, V domains shown)
VH: not shown
VL: EIVLTQSPATLSLSPGERATITCRASQSVSSYLAWYQQKPGQAPRLLIYDASNRATGIPARFSGSGSGTDFTLTISSLEPEDFAVYYCQQRLFHPPTFGGGTKVEIK
notes: IgG

- binding result [1]: no binding (tested: 1 ug/ml)
- binding result (human SIRPα on cells [2]): no binding (tested: 1 ug/ml)
- binding result (mouse SIRPα on cells [3]): no binding (tested: 1 ug/ml)
- FOB [4]: 1.3 fold over background
- FOB (human SIRPα on cells [5]): 2.5 fold over background
- FOB [6]: 4.5 fold over background
- FOB (mouse SIRPα on cells [7]): 1.2 fold over background
- binding result [8]: no binding (tested: 100 nM)
- binding result (mouse SIRPα D1-Fc): no binding (tested: 100 nM)
B2: SB-14 (antibody, V domains shown)
VH: QVQLVQSGAEVKKPGSSVKVSCKASGGTFSSYAISWVRQAPGQGLEWMGGIIPIFGTASYAQKFQGRVTITADESTSTAYMELSSLRSEDTAVYYCARDRGGVGFDYWGQGTLVTVSS
VL: B1 VL with L4M, I21L, T22S, A51S, R91F, L92S, F93Y, H94Y, P96I
notes: IgG

- binding result [1]: no binding (tested: 1 ug/ml)
- binding result (mouse SIRPα on cells [3]): no binding (tested: 1 ug/ml)
- Kd [9]: 21.4 nM
- FOB [4]: 1.4 fold over background
- FOB (human SIRPα on cells [5]): 2 fold over background
- FOB [6]: 5 fold over background
- FOB (mouse SIRPα on cells [7]): 1.1 fold over background
- binding result (mouse SIRPα D1-Fc): no binding (tested: 100 nM)
B3: SB-39 (antibody, V domains shown)
VH: QVQLQESGPGLVKPSETLSLTCAVSGYSISSGYYWAWIRQPPGKGLEWIGSIYHSGSTYYNPSLKSRVTISVDTSKNQFSLKLSSVTAADTAVYYCARGGSNYGDYGRFDYWGQGTLVTVSS
VL: DIQMTQSPSSLSASVGDRVTITCRASQSISSYLNWYQQKPGKAPKLLIYGASSLQSGVPSRFSGSGSGTDFTLTISSLQPEDFATYYCQQSYDFPLTFGGGTKVEIK
notes: IgG

- binding result [1]: no binding (tested: 1 ug/ml)
- binding result (human SIRPα on cells [2]): no binding (tested: 1 ug/ml)
- binding result (mouse SIRPα on cells [3]): no binding (tested: 1 ug/ml)
- FOB [4]: 1.2 fold over background
- FOB (human SIRPα on cells [5]): 1.9 fold over background
- FOB [6]: 1.9 fold over background
- FOB (mouse SIRPα on cells [7]): 0.9 fold over background
- binding result [8]: no binding (tested: 100 nM)
- binding result (mouse SIRPα D1-Fc): no binding (tested: 100 nM)
B4: SB-13 (antibody, V domains shown)
VH: QVQLQESGPGLVKPSETLSLTCTVSGGSISSYYWSWIRQPPGKGLEWIGSIYYSGSTNYNPSLKSRVTISVDTSKNQFSLKLSSVTAADTAVYYCARGDTSGGAYFDLWGRGTLVTVSS
VL: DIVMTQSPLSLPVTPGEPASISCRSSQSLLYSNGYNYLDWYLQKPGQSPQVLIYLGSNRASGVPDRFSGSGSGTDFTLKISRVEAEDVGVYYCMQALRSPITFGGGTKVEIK
notes: IgG

- binding result [1]: no binding (tested: 1 ug/ml)
- binding result (human SIRPα on cells [2]): no binding (tested: 1 ug/ml)
- binding result (mouse SIRPα on cells [3]): no binding (tested: 1 ug/ml)
- Kd [9]: 1.3 nM
- FOB [4]: 1.2 fold over background
- FOB (human SIRPα on cells [5]): 1.2 fold over background
- FOB [6]: 4.3 fold over background
- FOB (mouse SIRPα on cells [7]): 1 fold over background
- binding result [8]: no binding (tested: 100 nM)
- binding result (mouse SIRPα D1-Fc): no binding (tested: 100 nM)
B5: SB-6 (antibody, V domains shown)
VH: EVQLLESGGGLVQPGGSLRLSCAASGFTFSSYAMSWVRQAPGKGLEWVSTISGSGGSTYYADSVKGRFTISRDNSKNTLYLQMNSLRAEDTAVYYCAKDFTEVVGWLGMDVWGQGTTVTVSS
VL: EIVLTQSPGTLSLSPGERATLSCRASQSVSSSYLAWYQQKPGQAPRLLIYGASSRATGIPDRFSGSGSGTDFTLTISRLEPEDFAVYYCQQSGHLPITFGGGTKVEIK
notes: IgG

- binding result [1]: no binding (tested: 1 ug/ml)
- binding result (mouse SIRPα on cells [3]): no binding (tested: 1 ug/ml)
- Kd [9]: 7.87 nM
- FOB [4]: 1.4 fold over background
- FOB (human SIRPα on cells [5]): 2.1 fold over background
- FOB [6]: 1.7 fold over background
- FOB (mouse SIRPα on cells [7]): 1.5 fold over background
- binding result (mouse SIRPα D1-Fc): no binding (tested: 100 nM)
B6: SB-30 (antibody, V domains shown)
VH: QVQLQESGPGLVKPSQTLSLTCTVSGGSISSGGYYWSWIRQHPGKGLEWIGYIYYSGSTVYNPSLKSRVTISVDTSKNQFSLKLSSVTAADTAVYYCAREGPGYPSYFDPWGQGTLVTVSS
VL: B5 VL with Y33F, S92F, G93L, H94S, L95S, I97W, I107N, K108Q
notes: IgG

- binding result [1]: no binding (tested: 1 ug/ml)
- binding result (mouse SIRPα on cells [3]): no binding (tested: 1 ug/ml)
- Kd [9]: 7.13 nM
- FOB [4]: 1.2 fold over background
- FOB (human SIRPα on cells [5]): 2.2 fold over background
- FOB [6]: 1.5 fold over background
- FOB (mouse SIRPα on cells [7]): 1.2 fold over background
- binding result (mouse SIRPα D1-Fc): no binding (tested: 100 nM)
B7: SB-32 (antibody, V domains shown)
VH: QVQLQESGPGLVKPSETLSLTCTVSGGSISSYYWSWIRQPPGKGLEWIGYIYSSGSTNYNPSLKSRVTISVDTSKNQFSLKLSSVTAADTAVYYCARGDSSSGGLDLWGRGTLVTVSS
VL: not shown
notes: IgG

- binding result [1]: no binding (tested: 1 ug/ml)
- binding result (human SIRPα on cells [2]): no binding (tested: 1 ug/ml)
- binding result (mouse SIRPα on cells [3]): no binding (tested: 1 ug/ml)
- FOB [4]: 1.4 fold over background
- FOB (human SIRPα on cells [5]): 2.4 fold over background
- FOB [6]: 3.8 fold over background
- FOB (mouse SIRPα on cells [7]): 1 fold over background
- binding result [8]: no binding (tested: 100 nM)
- binding result (mouse SIRPα D1-Fc): no binding (tested: 100 nM)
B8: SB-10 (antibody, V domains shown)
VH: QVQLVQSGAEVKKPGSSVKVSCKASGGTFSSYAISWVRQAPGQGLEWMGGIIPIFGTANYAQKFQGRVTITADESTSTAYMELSSLRSEDTAVYYCARGVPRGDLGMDVWGQGTTVTVSS
VL: not shown
notes: IgG

- binding result [1]: no binding (tested: 1 ug/ml)
- binding result (mouse SIRPα on cells [3]): no binding (tested: 1 ug/ml)
- Kd [9]: 10.3 nM
- FOB [4]: 1.3 fold over background
- FOB (human SIRPα on cells [5]): 2.2 fold over background
- FOB [6]: 1.7 fold over background
- FOB (mouse SIRPα on cells [7]): 1.7 fold over background
- binding result (mouse SIRPα D1-Fc): no binding (tested: 100 nM)
B9: SB-41 (antibody, V domains shown)
VH: QLQLQESGPGLVKPSETLSLTCTVSGGSISSSSYYWGWIRQPPGKGLEWIGSIYYSGSTYYNPSLKSRVTISVDTSKNQFSLKLSSVTAADTAVYYCARVGQYPIYGMDVWGQGTTVTVSS
VL: DIQMTQSPSSLSASVGDRVTITCQASQDITNYLNWYQQKPGKAPKLLIYDASNLETGVPSRFSGSGSGTDFTFTISSLQPEDIATYYCQQADNFPYTFGGGTKVEIK
notes: IgG

- binding result [1]: no binding (tested: 1 ug/ml)
- binding result (mouse SIRPα on cells [3]): no binding (tested: 1 ug/ml)
- Kd [9]: 4.39 nM
- FOB [4]: 1.2 fold over background
- FOB (human SIRPα on cells [5]): 2.7 fold over background
- FOB [6]: 3.4 fold over background
- FOB (mouse SIRPα on cells [7]): 1.7 fold over background
- binding result (mouse SIRPα D1-Fc): no binding (tested: 100 nM)
B10: SB-49 (antibody, V domains shown)
VH: QLQLQESGPGLVKPSETLSLTCTVSGGSISSSDYYWGWIRQPPGKGLEWIGSIYYSGSTYYNPSLKSRVTISVDTSKNQFSLKLSSVTAADTAVYYCARGPTGYKDKWRYYYGMDVWGQGTTVTVSS
VL: B9 VL with A91Y, D92F, N93H, F94P, Y96L
notes: IgG

- binding result [1]: no binding (tested: 1 ug/ml)
- binding result (human SIRPα on cells [2]): no binding (tested: 1 ug/ml)
- binding result (mouse SIRPα on cells [3]): no binding (tested: 1 ug/ml)
- FOB [4]: 1.2 fold over background
- FOB (human SIRPα on cells [5]): 2.5 fold over background
- FOB [6]: 2.8 fold over background
- FOB (mouse SIRPα on cells [7]): 1.7 fold over background
- binding result [8]: no binding (tested: 100 nM)
- binding result (mouse SIRPα D1-Fc): no binding (tested: 100 nM)
B11: SB-50 (antibody, V domains shown)
VH: QVQLVQSGAEVKKPGSSVKVSCKASGGTFSSYAISWVRQAPGQGLEWMGGIIPIFGTANYAQKFQGRVTITADESTSTAYMELSSLRSEDTAVYYCAREGGGHASYHYYGMDVWGQGTTVTVSS
VL: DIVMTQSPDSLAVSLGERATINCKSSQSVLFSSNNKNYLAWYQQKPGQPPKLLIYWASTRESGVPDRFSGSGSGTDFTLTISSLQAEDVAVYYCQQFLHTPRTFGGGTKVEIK
notes: IgG

— US20250026827A1 (Alector, published 2025)
